Reference: patent publication US20090202429A1

Legend:
[1] = target: murine platelet glycoprotein Ib alpha (GPIb alpha), on mouse platelets (mouse) (UniProt O35930); assay: cell-based or functional assay
[2] = target: human platelet glycoprotein Ib alpha (GPIb alpha), on human platelets (human) (UniProt P07359); assay: cell-based or functional assay
[3] = target: human platelet glycoprotein Ib alpha (GPIb alpha), on human platelets (human) (UniProt P07359); assay: human whole blood perfused over surface-bound protein, parallel-plate flow chamber, 1600 s^-1
[4] = target: human platelet integrin alphaIIb beta3, on human platelets (human) (UniProt P08514); assay: cell-based or functional assay
[5] = target: human platelet glycoprotein Ib alpha (GPIb alpha), on human platelets (human) (UniProt P07359)

Sequence of human platelet glycoprotein Ib alpha (GPIb alpha), on human platelets (human) (P07359 17-652): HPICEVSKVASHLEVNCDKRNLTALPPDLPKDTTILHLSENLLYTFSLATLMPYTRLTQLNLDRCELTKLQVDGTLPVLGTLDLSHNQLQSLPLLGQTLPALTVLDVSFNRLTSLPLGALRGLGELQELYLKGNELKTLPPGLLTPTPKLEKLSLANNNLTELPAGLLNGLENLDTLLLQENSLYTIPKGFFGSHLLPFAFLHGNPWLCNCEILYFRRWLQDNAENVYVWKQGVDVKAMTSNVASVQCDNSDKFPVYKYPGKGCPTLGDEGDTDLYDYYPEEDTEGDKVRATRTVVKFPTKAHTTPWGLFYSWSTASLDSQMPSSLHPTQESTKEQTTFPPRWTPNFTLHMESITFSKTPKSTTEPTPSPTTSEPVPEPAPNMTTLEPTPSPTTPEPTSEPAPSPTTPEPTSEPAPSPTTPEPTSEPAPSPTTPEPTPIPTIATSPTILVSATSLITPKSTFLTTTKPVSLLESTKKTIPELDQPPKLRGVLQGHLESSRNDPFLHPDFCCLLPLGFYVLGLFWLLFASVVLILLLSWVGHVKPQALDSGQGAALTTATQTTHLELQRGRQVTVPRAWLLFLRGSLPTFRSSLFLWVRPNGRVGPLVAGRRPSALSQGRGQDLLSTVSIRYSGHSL
Sequence of murine platelet glycoprotein Ib alpha (GPIb alpha), on mouse platelets (mouse) (O35930 17-734): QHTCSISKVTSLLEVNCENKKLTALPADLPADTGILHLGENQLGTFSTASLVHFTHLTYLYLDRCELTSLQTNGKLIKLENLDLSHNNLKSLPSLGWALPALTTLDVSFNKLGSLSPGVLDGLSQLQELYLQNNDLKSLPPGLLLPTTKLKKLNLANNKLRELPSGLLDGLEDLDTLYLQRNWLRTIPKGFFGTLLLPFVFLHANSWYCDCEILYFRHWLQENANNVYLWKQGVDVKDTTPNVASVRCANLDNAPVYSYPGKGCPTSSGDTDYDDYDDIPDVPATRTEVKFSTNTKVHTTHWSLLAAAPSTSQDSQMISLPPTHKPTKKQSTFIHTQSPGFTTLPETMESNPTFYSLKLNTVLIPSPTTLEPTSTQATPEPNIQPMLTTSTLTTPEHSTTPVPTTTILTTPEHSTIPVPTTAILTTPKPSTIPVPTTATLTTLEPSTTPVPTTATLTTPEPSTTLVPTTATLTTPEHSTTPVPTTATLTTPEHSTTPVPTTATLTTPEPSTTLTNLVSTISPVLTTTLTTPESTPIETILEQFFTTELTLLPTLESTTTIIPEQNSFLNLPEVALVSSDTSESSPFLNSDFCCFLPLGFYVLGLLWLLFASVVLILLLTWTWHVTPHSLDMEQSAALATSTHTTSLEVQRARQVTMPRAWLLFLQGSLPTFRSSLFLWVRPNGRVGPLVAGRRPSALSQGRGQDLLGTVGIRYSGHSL
Sequence of human platelet integrin alphaIIb beta3, on human platelets (human) (P08514 32-1039, chain 1 of 2): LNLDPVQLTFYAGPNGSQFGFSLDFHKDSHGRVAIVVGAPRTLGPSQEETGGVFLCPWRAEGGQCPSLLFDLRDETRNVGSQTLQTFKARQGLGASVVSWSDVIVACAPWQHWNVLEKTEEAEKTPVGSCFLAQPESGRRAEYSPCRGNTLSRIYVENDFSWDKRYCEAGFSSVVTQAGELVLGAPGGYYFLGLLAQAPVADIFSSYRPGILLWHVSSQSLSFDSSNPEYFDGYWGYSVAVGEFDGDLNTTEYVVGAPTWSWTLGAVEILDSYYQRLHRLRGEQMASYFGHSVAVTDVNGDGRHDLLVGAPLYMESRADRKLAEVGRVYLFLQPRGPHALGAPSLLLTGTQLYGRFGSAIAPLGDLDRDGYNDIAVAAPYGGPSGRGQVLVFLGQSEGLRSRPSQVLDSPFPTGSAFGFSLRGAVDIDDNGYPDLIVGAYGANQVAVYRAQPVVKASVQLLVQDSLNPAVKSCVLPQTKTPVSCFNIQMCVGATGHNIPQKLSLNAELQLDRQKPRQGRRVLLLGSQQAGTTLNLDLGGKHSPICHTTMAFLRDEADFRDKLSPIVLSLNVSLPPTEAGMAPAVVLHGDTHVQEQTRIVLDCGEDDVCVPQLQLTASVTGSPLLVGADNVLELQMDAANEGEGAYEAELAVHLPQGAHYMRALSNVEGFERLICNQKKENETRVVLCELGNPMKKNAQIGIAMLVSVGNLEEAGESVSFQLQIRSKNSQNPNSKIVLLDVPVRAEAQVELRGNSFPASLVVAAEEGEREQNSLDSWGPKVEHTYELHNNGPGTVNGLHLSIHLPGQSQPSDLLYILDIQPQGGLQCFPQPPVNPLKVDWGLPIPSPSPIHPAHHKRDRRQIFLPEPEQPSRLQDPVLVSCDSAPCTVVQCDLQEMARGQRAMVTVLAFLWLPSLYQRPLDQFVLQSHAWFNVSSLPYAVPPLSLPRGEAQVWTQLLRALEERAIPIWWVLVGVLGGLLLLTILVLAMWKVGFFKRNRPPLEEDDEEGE
Sequence of human platelet integrin alphaIIb beta3, on human platelets (human) (P05106 27-788, chain 2 of 2, further chain): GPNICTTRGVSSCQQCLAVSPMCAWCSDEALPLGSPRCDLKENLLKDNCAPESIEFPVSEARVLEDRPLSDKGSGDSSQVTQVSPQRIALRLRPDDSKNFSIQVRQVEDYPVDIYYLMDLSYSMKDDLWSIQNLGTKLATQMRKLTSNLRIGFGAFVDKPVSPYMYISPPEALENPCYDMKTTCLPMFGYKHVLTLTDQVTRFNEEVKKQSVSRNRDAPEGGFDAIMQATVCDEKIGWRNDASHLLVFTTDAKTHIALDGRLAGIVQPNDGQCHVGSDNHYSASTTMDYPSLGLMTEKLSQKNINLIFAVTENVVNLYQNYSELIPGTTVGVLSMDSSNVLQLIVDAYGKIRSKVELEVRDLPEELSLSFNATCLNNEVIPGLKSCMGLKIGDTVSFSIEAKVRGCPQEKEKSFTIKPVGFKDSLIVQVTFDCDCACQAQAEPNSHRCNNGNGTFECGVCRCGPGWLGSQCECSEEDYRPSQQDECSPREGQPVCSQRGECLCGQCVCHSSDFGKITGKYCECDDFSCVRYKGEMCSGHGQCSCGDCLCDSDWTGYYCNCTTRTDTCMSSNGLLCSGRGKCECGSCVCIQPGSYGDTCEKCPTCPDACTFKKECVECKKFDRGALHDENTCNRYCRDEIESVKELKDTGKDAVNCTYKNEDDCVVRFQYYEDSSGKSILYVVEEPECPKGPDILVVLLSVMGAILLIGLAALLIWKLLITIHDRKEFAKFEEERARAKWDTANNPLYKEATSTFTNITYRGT

murine plasma VWF, wild type, Q8CIZ8 764-2813
ristocetin-induced platelet aggregation (RIPA), murine PRP, ristocetin ≧2.5 mg/ml [1]: 30% | share of human platelets in total thrombus area in WT mice [2]: 5.7% | platelet deposition, % of same-species control [3]: 10%

function-blocking monoclonal antibody 7E3 (anti-human alphaIIb beta3)
thrombus size in VWF 1326R>H mice after treatment of human platelets with mAb 7E3 [4]: 529 µm^2

function-blocking monoclonal antibody 6D1 (anti-human GPIb alpha)
thrombus size in VWF 1326R>H mice after pre-treatment of human platelets with mAb 6D1 [2]: 265 µm^2 | human platelet accumulation / mm2 on surface-immobilized murine plasma VWF 1326R>H at 1600 s^-1, human blood treated with mAb 6D1 [5]: 0 / mm2

murine plasma VWF with the 1326R>H mutation (from homozygous VWF 1326R>H knock-in mice), Q8CIZ8 764-2813
thrombi formed on collagen-coated cover slips by whole blood of knock-in animals, 1600 s^-1, reduction against WT [1]: 70% | thrombus formation by whole blood of mutant mice over surface-immobilized collagen in vitro, reduction against WT [1]: 80% | average thrombus size at laser-injured arterioles of homozygous VWF 1326R>H mice infused with human platelets [2]: 8950 µm^2 | share of human cells in thrombi at laser-injured arterioles of homozygous VWF 1326R>H mice [2]: 91.7% | translocation velocity of human platelets on immobilized plasma VWF [2]: 3.5 µm/sec
